{"source": "paper PMC10397247", "experiment_in_all_cases": "two-hybrid library CCNG1;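 also: natural log of median RNA to DNA barcode read ratio; higher means stronger binding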", "key": {"4H331-bH": {"biological_target": "T1, 4H331-bH", "T1 chain": "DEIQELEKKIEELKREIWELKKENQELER"}, "4H3354-bH": {"biological_target": "T2, 4H3354-bH", "T2 chain": "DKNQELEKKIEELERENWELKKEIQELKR"}, "4H338-bH": {"biological_target": "T3, 4H338-bH", "T3 chain": "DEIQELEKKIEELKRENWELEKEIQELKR"}, "4H3427-bH": {"biological_target": "T4, 4H3427-bH", "T4 chain": "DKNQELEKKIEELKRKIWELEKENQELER"}, "4H3606-bH": {"biological_target": "T5, 4H3606-bH", "T5 chain": "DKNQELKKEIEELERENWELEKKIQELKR"}, "4H370-bH": {"biological_target": "T6, 4H370-bH", "T6 chain": "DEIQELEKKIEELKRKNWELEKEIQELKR"}, "4H3782-bH": {"biological_target": "T7, 4H3782-bH", "T7 chain": "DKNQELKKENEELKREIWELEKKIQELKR"}, "4H3843-bH": {"biological_target": "T8, 4H3843-bH", "T8 chain": "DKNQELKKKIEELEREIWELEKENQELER"}, "4H3855-bH": {"biological_target": "T9, 4H3855-bH", "T9 chain": "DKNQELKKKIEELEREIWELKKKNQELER"}, "4H4001-bH": {"biological_target": "T10, 4H4001-bH", "T10 chain": "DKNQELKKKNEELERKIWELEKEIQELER"}, "4H454-bH": {"biological_target": "T11, 4H454-bH", "T11 chain": "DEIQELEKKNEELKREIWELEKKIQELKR"}, "4H462-bH": {"biological_target": "T12, 4H462-bH", "T12 chain": "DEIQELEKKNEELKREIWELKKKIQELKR"}, "4H568-bH": {"biological_target": "T13, 4H568-bH", "T13 chain": "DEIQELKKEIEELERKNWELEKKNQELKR"}, "4H607-bH": {"biological_target": "T14, 4H607-bH", "T14 chain": "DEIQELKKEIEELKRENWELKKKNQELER"}, "4H687-bH": {"biological_target": "T15, 4H687-bH", "T15 chain": "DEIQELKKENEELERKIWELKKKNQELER"}, "4H717-bH": {"biological_target": "T16, 4H717-bH", "T16 chain": "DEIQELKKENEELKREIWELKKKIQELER"}, "4H72-bH": {"biological_target": "T17, 4H72-bH", "T17 chain": "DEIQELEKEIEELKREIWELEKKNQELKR"}, "4H754-bH": {"biological_target": "T18, 4H754-bH", "T18 chain": "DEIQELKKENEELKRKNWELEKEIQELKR"}, "4H754-bN": {"biological_target": "T19, 4H754-bN", "T19 chain": "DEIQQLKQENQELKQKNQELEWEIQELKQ"}, "4H797-bH": {"biological_target": "T20, 4H797-bH", "T20 chain": "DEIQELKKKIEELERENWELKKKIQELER"}, "4H883-bH": {"biological_target": "T21, 4H883-bH", "T21 chain": "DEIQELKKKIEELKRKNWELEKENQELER"}, "4H908-bH": {"biological_target": "T22, 4H908-bH", "T22 chain": "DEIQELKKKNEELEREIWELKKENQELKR"}, "4H918-bH": {"biological_target": "T23, 4H918-bH", "T23 chain": "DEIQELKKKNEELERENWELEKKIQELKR"}, "4H953-bH": {"biological_target": "T24, 4H953-bH", "T24 chain": "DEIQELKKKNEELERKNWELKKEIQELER"}, "4H967-bH": {"biological_target": "T25, 4H967-bH", "T25 chain": "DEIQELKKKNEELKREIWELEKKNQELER"}}, "data": [{"binder": "DEIQELEKKIEELKREIWELKKENQELER", "note": "[4H331-bH]", "values": [{"measurement": "interaction score", "setting": "4H331-bH", "result": 1.45}, {"measurement": "interaction score", "setting": "4H3354-bH", "result": -0.721}, {"measurement": "interaction score", "setting": "4H338-bH", "result": 0.213}, {"measurement": "interaction score", "setting": "4H3427-bH", "result": 1.6}, {"measurement": "interaction score", "setting": "4H3606-bH", "result": 0.467}, {"measurement": "interaction score", "setting": "4H370-bH", "result": -0.325}, {"measurement": "interaction score", "setting": "4H3782-bH", "result": -0.0752}, {"measurement": "interaction score", "setting": "4H3843-bH", "result": 0.837}, {"measurement": "interaction score", "setting": "4H3855-bH", "result": 0.334}, {"measurement": "interaction score", "setting": "4H4001-bH", "result": 0.891}, {"measurement": "interaction score", "setting": "4H454-bH", "result": -0.0612}, {"measurement": "interaction score", "setting": "4H462-bH", "result": 0.445}, {"measurement": "interaction score", "setting": "4H568-bH", "result": -1.97}, {"measurement": "interaction score", "setting": "4H607-bH", "result": -1.89}, {"measurement": "interaction score", "setting": "4H687-bH", "result": -0.531}, {"measurement": "interaction score", "setting": "4H717-bH", "result": -1.1}, {"measurement": "interaction score", "setting": "4H72-bH", "result": 0.733}, {"measurement": "interaction score", "setting": "4H754-bH", "result": -1.42}, {"measurement": "interaction score", "setting": "4H754-bN", "result": -1.25}, {"measurement": "interaction score", "setting": "4H797-bH", "result": -0.0604}, {"measurement": "interaction score", "setting": "4H883-bH", "result": 0.193}, {"measurement": "interaction score", "setting": "4H908-bH", "result": -0.0604}, {"measurement": "interaction score", "setting": "4H918-bH", "result": -1.11}, {"measurement": "interaction score", "setting": "4H953-bH", "result": -0.344}, {"measurement": "interaction score", "setting": "4H967-bH", "result": -0.299}]}]}
